Test results from US20140314667A1, “METHODS OF TREATING EPIDERMAL GROWTH FACTOR DELETION MUTANT VIII RELATED DISORDERS” (AMGEN INC., priority 2011, published 2014).
Numbering of substitutions follows the chain as printed.

B1: 170: XenoMax derived anti-EGFRvIII antibody, SEQ ID NO: 4/20 (antibody, listed as Homo sapiens, V domains shown)
VH: QVQLQQSGPGLVKPSQTLSLTCAISGDSVSSNNAAWNWIRQSPARGLEWLGRTYYRSKWYNDYVVSVKSRITINPDTSKNQFSLQLNSVTPEDTAVYYCVRATAFDYWGQGTLVTVSS
VL: AIVLTQTPLSSPVTLGQPASISCRSSQSLVHRDGNTYLSWLQQRPGQPPRLLIYKISNRFSGVPDRFSGSGAGTDFTLKISRVEPDDVGVYYCMHTTQLPWTFGQGTKVEIK
B2: 150: XenoMax derived anti-EGFRvIII antibody, SEQ ID NO: 5/21 (antibody, listed as Homo sapiens, V domains shown)
VH: QVQLQQSGPGLVKPSQTLSLTCAISGDSVSSYSSAWNWIRQSPSRGLEWLGRAYHRSRWYYEYAVSVKSRINITPDTSKNQFSLQLNSVTPEDTAVYYCARGSRFDYWGQGTLVTVSS
VL: B1 VL with A1D, L4M, P85A, D86E, V90I, Y92F, L99F, K108R
B3: 211: XenoMax derived anti-EGFRvIII antibody, SEQ ID NO: 12/28 (antibody, listed as Homo sapiens, V domains shown)
VH: QVQLVESGGGVVQPGRSLRLSCVASGFTLSSYGMHWVRQAPGKGLEWVAVTSYDGSKKDYADSAKGRFTISRDNSKNTLYLQMNSLRAEDTAVYYCVSEGYCSSSSCYKYYYYGMDVWGQGTTVTVSS
VL: DIVMTQSPLSLPVTPGEPASISCRSSQSLLYRNGNNYLDWYLQRPGQSPQLLIYLGSNRASGVPDRFSGSGSGTDFTLKISRVEAEDVGVYYCMQALQTPRTFGQGTKVEIK

Legend:
[1] = molecular target: T1, EGFRvIII receptor in NR6 M cells (Homo sapiens, UniProt P00533, DELINS30-297G); assay: Internalization of EGFRvIII receptor by recombinant mAbs (FACS); assay type: cell-based; settings: 0.25 μg/ml antibody, 1 hr
T1 construct: NR6 M cells stably expressing full length EGFRvIII; expressed in transfected cells; host or cells: NR6 cells (NR6 M)
Description: XenoMax derived IgG1 recombinant antibodies were expressed, purified and quantitated as described previously. Antibodies were further assayed for their ability to internalize the EGFRvIII receptor in NR6 M cells. […] The cells were washed with cold 10% FCS in PBS and secondary antibody (SS Alexa antihuman IgG Fab) at 3 μg/ml Fab was added and incubated for 7 mins on ice. The cells were washed with cold 10% FCS in PBS once and then resuspended in cold media. Next, two sets of the triplicate were incubated at 37° C. and the remaining set was incubated at 4° C. for 1 hr. After that the cells incubated at 4° C. and one set of the cells incubated at 37° C. were treated with glutathione (as previously mentioned) for 1 hr on ice. Then the cells were washed and resuspended in 100 μl of cold 1% FCS in PBS and analyzed by FACS. The % internalization was calculated from the geometric mean obtained from the FACS analysis [(mean at 37° C. with glutathione−mean at 4° C. with glutathione)/(mean at 37° C. without glutathione−mean at 4 C with glutathione)].

[2] = molecular target: T2, EGFRvIII receptor on NR6 M cells (Homo sapiens, UniProt P00533, DELINS30-297G); assay: Internalization assay (FMAT, glutathione) of B cell culture supernatants; assay type: cell-based
T2 construct: NR6 M cells stably expressing full length EGFRvIII; expressed in transfected cells; host or cells: NR6 cells (NR6 M)
Description: The top 60 native binding B cell culture supernatants were further assayed for their ability to internalize the receptor. NR6 M cells were seeded at 8000 cells/well into 96 well FMAT plates and incubated overnight. Media was removed and 10-15 μl B-Cell culture supernatant in a total volume of 30 μl media, in duplicate was added. Next, 15 μl of secondary antibody (SS Alexa 647 anti-human IgG Fab at 1.5 μg/ml final concentration) was added and the mixture was incubated on ice for 1 hr. An irrelevant B-Cell Culture supernatant was used to see the effect of the culture media. Human anti-EGFRvIII mAb 13.2.1 was used as a positive control starting at 1 μg/ml (final concentration) and negative control was PK 16.3.1 (human anti-KLH IgG2 antibody) at the same concentration. After incubation, the cells were washed with cold PBS, 50 μl media was added to all of the wells, one of the duplicates were incubated at 37° C. for 30 mins while the other duplicate remained on ice. After the incubations media was removed, 100 ul of cold 50 mM glutathione was added to the set incubated at 37° C. and 100 μl of cold media added to the other set, both sets were then left on ice for 1 hr. The cells were then washed with 100 μl cold PBS and then fixed with 1% paraformaldehyde and read in FMAT. The results were expressed as % internalized, calculated as total fluorescence in the presence of glutathione/total fluorescence in the absence of glutathione×100.

Molecule | FACS Geometric mean With glutathione 4° C. [1] | FACS Geometric mean With glutathione 37° C. [1] | % internalized, (glut+/glut−) × 100 ([2]; 37° C. for 30 mins) [%] | With glutathione FL1xcount ([2]; 37° C. for 30 mins, 50 mM glutathione) | No glutathione FL1xcount ([2]; kept on ice, no glutathione)
B1 | 4.67 | 7.75 | 52.8 | 1236 | 2342
B2 | 4.66 | 7.78 | – | – | –
B3 | 4.78 | 8.23 | – | – | –
